The supplement of paper PMC10724198
± gives the standard deviation of the averaged measurements.

Legend:
[1] = test system: Saccharomyces cerevisiae; assay: protein stability index of tFT-peptide fusion (C-terminal peptide) (PSI (0-1 scale)); higher = more stable (slower turnover); conditions: genetic background: wild type; temperature: 30 C
[2] = test system: Saccharomyces cerevisiae; assay: as above
Experimental: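 MPS profiling in S. cerevisiae of the tFT-X12 degron library: putative degron peptides plus stable controls, 12 aa, fused to the C-terminus of a sfGFP-mCherry timer. Cells are FACS-sorted into 8 mCherry/sfGFP bins and deep-sequenced. PSI runs from 0 (unstable) to 1 (stable). Backgrounds are wild type, das1Δ and doa10Δ at 30 °C, and wild type, das1Δ, cdc34-1 and cdc53-1 at 37 °C; 2-3 technical replicates each.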

[3] = genetic background: cdc34-1, temperature: 37 C
[4] = genetic background: cdc53-1, temperature: 37 C
[5] = genetic background: das1 deletion, temperature: 30 C
[6] = genetic background: das1 deletion, temperature: 37 C
[7] = genetic background: doa10 deletion, temperature: 30 C
[8] = genetic background: wild type, temperature: 30 C
[9] = genetic background: wild type, temperature: 37 C
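Note: PSI is a weighted mean of sequencing reads over stability bins, variants kept only with over 10 reads, mCherry proximal and sfGFP distal, peptide attached via GGGS linker.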

| Sequence | protein stability index [1] | protein stability index [2, 3] | protein stability index [2, 4] | protein stability index [2, 5] | protein stability index [2, 6] | protein stability index [2, 7] | protein stability index [2, 8] | protein stability index [2, 9] |
| --- | --- | --- | --- | --- | --- | --- | --- | --- |
| VFFLAFYFYRCF | 0.262 ± 0.02 | 0.405 ± 0.02 | 0.464 ± 0.018 | 0.416 ± 0.015 | 0.545 ± 0.0085 | 0.186 ± 0.0064 | 0.194 ± 0.029 | 0.365 ± 0.0085 |
| PRQGGDFVARVG | 0.7001 ± 0.0014 | 0.691 ± 0.0076 | 0.726 ± 0.024 | 0.638 ± 0.016 | 0.7341 ± 0.0065 | 0.631 ± 0.027 | 0.641 ± 0.015 | 0.721 ± 0.022 |
| GGKTLSIFLRIS | 0.258 ± 0.0057 | 0.611 ± 0.029 | 0.693 ± 0.021 | 0.554 ± 0.022 | 0.665 ± 0.0095 | 0.14 ± 0.013 | 0.159 ± 0.013 | 0.295 ± 0.017 |
| LGRYHPWLLFLC | 0.114 ± 0.027 | 0.261 ± 0.011 | 0.451 ± 0.021 | 0.457 ± 0.035 | 0.614 ± 0.0077 | 0.0687 ± 0.016 | 0.0711 ± 0.025 | 0.104 ± 0.0076 |
| MGDFGFIFVFFL | 0.502 ± 0.02 | 0.544 ± 0.007 | 0.606 ± 0.035 | 0.427 ± 0.027 | 0.6479 ± 0.0044 | 0.383 ± 0.0084 | 0.414 ± 0.008 | 0.59233 ± 0.00044 |
| IGFFFACFFSVF | 0.442 ± 0.065 | 0.419 ± 0.057 | 0.444 ± 0.012 | 0.403 ± 0.021 | 0.518 ± 0.0099 | 0.352 ± 0.0041 | 0.363 ± 0.022 | 0.43 ± 0.019 |
| LCWLVHFFLWVS | 0.288 ± 0.018 | 0.35 ± 0.081 | 0.431 ± 0.0079 | 0.312 ± 0.024 | 0.442 ± 0.023 | 0.253 ± 0.013 | 0.238 ± 0.017 | 0.393 ± 0.0092 |
| RLVMAVRVAAGG | 0.451 ± 0.034 | 0.509 ± 0.025 | 0.532 ± 0.0023 | 0.347 ± 0.033 | 0.55975 ± 0.00038 | 0.327 ± 0.011 | 0.349 ± 0.015 | 0.524 ± 0.031 |
| GPPPAPSPTPSP | 0.732 ± 0.023 | 0.661 ± 0.035 | 0.7253 ± 0.0049 | 0.676 ± 0.021 | 0.7217 ± 0.0055 | 0.685 ± 0.014 | 0.687 ± 0.015 | 0.699 ± 0.02 |
| LFLEVCFFRLYF | 0.465 ± 0.032 | 0.511 ± 0.055 | 0.555 ± 0.037 | 0.447 ± 0.032 | 0.54 ± 0.011 | 0.46 ± 0.02 | 0.453 ± 0.032 | 0.5086 ± 0.0018 |
| GFFFFHGLCFFV | 0.43 ± 0.047 | 0.448 ± 0.017 | 0.513 ± 0.028 | 0.382 ± 0.029 | 0.5453 ± 0.0035 | 0.358 ± 0.028 | 0.355 ± 0.023 | 0.526 ± 0.02 |
| RKRKKISEIIAI | 0.52 ± 0.047 | 0.664 ± 0.054 | 0.708 ± 0.075 | 0.589 ± 0.036 | 0.69 ± 0.039 | 0.519 ± 0.037 | 0.572 ± 0.041 | 0.637 ± 0.003 |
| LFYVCPFVCFLC | 0.324 ± 0.058 | 0.554 ± 0.044 | 0.6288 ± 0.001 | 0.516 ± 0.017 | 0.61052 ± 9.9e-05 | 0.307 ± 0.0078 | 0.335 ± 0.026 | 0.438 ± 0.033 |
| CTESVYIIRFML | 0.341 ± 0.084 | 0.638 ± 0.045 | 0.661 ± 0.025 | 0.568 ± 0.025 | 0.662 ± 0.02 | 0.222 ± 0.003 | 0.253 ± 0.035 | 0.466 ± 0.029 |
| PSPVRSSYASTL | 0.711 ± 0.049 | 0.6664 ± 0.0066 | 0.704 ± 0.024 | 0.6396 ± 0.0033 | 0.7222 ± 0.0029 | 0.6532 ± 0.0047 | 0.665 ± 0.02 | 0.68992 ± 0.00058 |
| WGLGWRGALVAV | 0.385 ± 0.062 | 0.417 ± 0.0089 | 0.42 ± 0.017 | 0.321 ± 0.033 | 0.4845 ± 0.0034 | 0.269 ± 0.0084 | 0.324 ± 0.027 | 0.454 ± 0.0095 |
| LFFGFFLIYFLG | 0.353 ± 0.044 | 0.428 ± 0.048 | 0.4839 ± 0.0013 | 0.384 ± 0.034 | 0.495 ± 0.0074 | 0.266 ± 0.014 | 0.278 ± 0.018 | 0.424 ± 0.032 |
| RSCKSIRGIFVC | 0.315 ± 0.027 | 0.606 ± 0.068 | 0.7199 ± 0.0018 | 0.543 ± 0.018 | 0.719 ± 0.022 | 0.2 ± 0.0066 | 0.229 ± 0.02 | 0.388 ± 0.013 |
| AFLCVFGFCFFV | 0.339 ± 0.037 | 0.423 ± 0.015 | 0.455 ± 0.014 | 0.372 ± 0.035 | 0.482 ± 0.026 | 0.285 ± 0.008 | 0.278 ± 0.019 | 0.407 ± 0.025 |
| GIFVRIVCIDVA | 0.2651 ± 0.0024 | 0.125 ± 0.0095 | 0.183 ± 0.0066 | 0.178 ± 0.032 | 0.302 ± 0.007 | 0.143 ± 0.0085 | 0.165 ± 0.021 | 0.2851 ± 0.0006 |

| Sequence | protein stability index [1] | protein stability index [2, 3] | protein stability index [2, 4] | protein stability index [2, 5] | protein stability index [2, 6] | protein stability index [2, 7] | protein stability index [2, 8] | protein stability index [2, 9] |
| --- | --- | --- | --- | --- | --- | --- | --- | --- |
| PPGLLPPCLLVV | 0.39 ± 0.05 | 0.358 ± 0.027 | 0.373 ± 0.0093 | 0.307 ± 0.035 | 0.444 ± 0.02 | 0.2485 ± 0.00054 | 0.301 ± 0.028 | 0.395 ± 0.011 |
| CLAWWLGRVWVC | 0.141 ± 0.006 | 0.184 ± 0.018 | 0.225 ± 0.0095 | 0.219 ± 0.027 | 0.364 ± 0.0011 | 0.115 ± 0.011 | 0.0919 ± 0.017 | 0.105 ± 0.0053 |
| ACACFWVVWVGW | 0.378 ± 0.03 | 0.262 ± 0.027 | 0.374 ± 0.021 | 0.248 ± 0.024 | 0.4309 ± 0.0018 | 0.217 ± 0.021 | 0.238 ± 0.035 | 0.402 ± 0.0083 |
| LFVFVLAGFCCV | 0.381 ± 0.0073 | 0.352 ± 0.0073 | 0.436 ± 0.017 | 0.32 ± 0.025 | 0.485 ± 0.011 | 0.287 ± 0.0059 | 0.308 ± 0.039 | 0.432 ± 0.041 |
| VGFCICISIMSF | 0.213 ± 0.046 | 0.0373 ± 0.016 | 0.109 ± 0.025 | 0.125 ± 0.025 | 0.214 ± 0.023 | 0.09907 ± 0.00077 | 0.108 ± 0.031 | 0.209 ± 0.027 |
| IGYLGSELRFVS | 0.514 ± 0.037 | 0.688 ± 0.094 | 0.741 ± 0.011 | 0.626 ± 0.0078 | 0.762 ± 0.018 | 0.384 ± 0.017 | 0.434 ± 0.04 | 0.69 ± 0.012 |
| NVVIGLHLLVYI | 0.326 ± 0.049 | 0.205 ± 0.021 | 0.313 ± 0.041 | 0.212 ± 0.047 | 0.419 ± 0.017 | 0.189 ± 0.022 | 0.227 ± 0.014 | 0.388 ± 0.018 |
| VVLRCGCLVFIN | 0.134 ± 0.051 | 0.419 ± 0.027 | 0.5767 ± 0.0053 | 0.398 ± 0.023 | 0.6443 ± 0.0057 | 0.0928 ± 0.0026 | 0.105 ± 0.017 | 0.0809 ± 0.0089 |
| LFFVVFFLLFLL | 0.411 ± 0.025 | 0.402 ± 0.0091 | 0.446 ± 0.028 | 0.36 ± 0.026 | 0.477 ± 0.029 | 0.389 ± 0.0099 | 0.337 ± 0.023 | 0.453 ± 0.026 |
| LFIFYCFFFLVR | 0.352 ± 0.051 | 0.27 ± 0.059 | 0.379 ± 0.087 | 0.318 ± 0.043 | 0.395 ± 0.0053 | 0.359 ± 0.029 | 0.294 ± 0.0066 | 0.3824 ± 0.002 |
| GPTLLVSRIAVI | 0.249 ± 0.011 | 0.506 ± 0.026 | 0.517 ± 0.024 | 0.368 ± 0.039 | 0.565 ± 0.011 | 0.137 ± 0.0051 | 0.162 ± 0.021 | 0.291 ± 0.015 |
| SHPAPPSPPPSP | 0.413 ± 0.0094 | 0.618 ± 0.078 | 0.676 ± 0.0076 | 0.384 ± 0.025 | 0.537 ± 0.014 | 0.363 ± 0.0086 | 0.391 ± 0.025 | 0.534 ± 0.0059 |
| VSSSFSVLVLLF | 0.421 ± 0.021 | 0.448 ± 0.017 | 0.545 ± 0.035 | 0.375 ± 0.037 | 0.571 ± 0.013 | 0.317 ± 0.02 | 0.339 ± 0.026 | 0.52 ± 0.035 |
| DFPGDIILRLIA | 0.207 ± 0.11 | 0.576 ± 0.041 | 0.748 ± 0.044 | 0.635 ± 0.014 | 0.728 ± 0.025 | 0.139 ± 0.0097 | 0.155 ± 0.0082 | 0.214 ± 0.069 |
| AFFCTLCLFLVS | 0.402 ± 0.014 | 0.44 ± 0.02 | 0.472 ± 0.033 | 0.36 ± 0.036 | 0.496 ± 0.012 | 0.3064 ± 0.002 | 0.323 ± 0.037 | 0.478 ± 0.023 |
| LISGVCLRVKVG | 0.346 ± 0.046 | 0.55 ± 0.031 | 0.597 ± 0.017 | 0.452 ± 0.029 | 0.6276 ± 0.00027 | 0.16 ± 0.016 | 0.193 ± 0.015 | 0.3637 ± 0.0019 |
| ASSSPAPYAPYT | 0.635 ± 0.23 | 0.7006 ± 0.0052 | 0.7559 ± 0.0043 | 0.647 ± 0.031 | 0.76 ± 0.029 | 0.634 ± 0.03 | 0.642 ± 0.025 | 0.744 ± 0.017 |
| VLVVVRSLSFLS | 0.382 ± 0.019 | 0.405 ± 0.065 | 0.51 ± 0.011 | 0.347 ± 0.025 | 0.534 ± 0.015 | 0.308 ± 0.013 | 0.31 ± 0.023 | 0.496 ± 0.013 |
| IVIFQTAYVVRI | 0.213 ± 0.0041 | 0.159 ± 0.0011 | 0.233 ± 0.013 | 0.164 ± 0.011 | 0.238 ± 0.012 | 0.225 ± 0.034 | 0.173 ± 0.0086 | 0.234 ± 0.01 |
